Test results: the Human Domainome abundance scans (Beltran et al. 2025)
± gives the uncertainty stated by the source.

B1: Formin-binding protein 4, residues 593 to 636; numbered along this chain, Q8N3X1 (parent)
chain: EINATPKGWSCHWDRDHRRYFYVNEQSGESQWEFPDGEEEEEES

Variants of: B1
Assay: abundance fitness (aPCA) (normalised: wild type 0, dead -1); higher = more abundant; growth selection in yeast, the domain comes from the species named
Conditions: Homo sapiens

Variant | abundance fitness
EINATPKGWSCHWDRDHRRYFYVMEQSGESQWEFPDGEEEEEES [N24M] | -0.984 ± 0.099
EINATPKGWSCHWDRDHRRYFYVQEQSGESQWEFPDGEEEEEES [N24Q] | -0.41 ± 0.084
EINATPKGWSCHWDRDHRRYFYVREQSGESQWEFPDGEEEEEES [N24R] | -0.359 ± 0.058
EINATPKGWSCHWDRDHRRYFYVSEQSGESQWEFPDGEEEEEES [N24S] | -0.315 ± 0.079
EINATPKGWSCHWDRDHRRYFYVTEQSGESQWEFPDGEEEEEES [N24T] | -0.63 ± 0.14
EINATPKGWSCHWDRDHRRYFYVVEQSGESQWEFPDGEEEEEES [N24V] | -1.08 ± 0.072
EINATPKGWSCHWDRDHRRYFYVWEQSGESQWEFPDGEEEEEES [N24W] | -0.726 ± 0.082
EINATPKGWSCHWDRDHRRYFYVYEQSGESQWEFPDGEEEEEES [N24Y] | -0.998 ± 0.16
EINATPKGWSCHWDRDHRRYFYVNAQSGESQWEFPDGEEEEEES [E25A] | -0.179 ± 0.078
EINATPKGWSCHWDRDHRRYFYVNCQSGESQWEFPDGEEEEEES [E25C] | -0.355 ± 0.29
EINATPKGWSCHWDRDHRRYFYVNDQSGESQWEFPDGEEEEEES [E25D] | 0.144 ± 0.13
EINATPKGWSCHWDRDHRRYFYVNGQSGESQWEFPDGEEEEEES [E25G] | -0.316 ± 0.073
EINATPKGWSCHWDRDHRRYFYVNHQSGESQWEFPDGEEEEEES [E25H] | -0.251 ± 0.12
EINATPKGWSCHWDRDHRRYFYVNKQSGESQWEFPDGEEEEEES [E25K] | 0.477 ± 0.27
EINATPKGWSCHWDRDHRRYFYVNMQSGESQWEFPDGEEEEEES [E25M] | -0.253 ± 0.12
EINATPKGWSCHWDRDHRRYFYVNPQSGESQWEFPDGEEEEEES [E25P] | -0.449 ± 0.14
EINATPKGWSCHWDRDHRRYFYVNQQSGESQWEFPDGEEEEEES [E25Q] | 0.006 ± 0.14
EINATPKGWSCHWDRDHRRYFYVNRQSGESQWEFPDGEEEEEES [E25R] | -0.175 ± 0.067
EINATPKGWSCHWDRDHRRYFYVNSQSGESQWEFPDGEEEEEES [E25S] | -0.365 ± 0.14
EINATPKGWSCHWDRDHRRYFYVNTQSGESQWEFPDGEEEEEES [E25T] | -0.119 ± 0.13

Variant | abundance fitness
EINATPKGWSCHWDRDHRRYFYVNVQSGESQWEFPDGEEEEEES [E25V] | -0.17 ± 0.094
EINATPKGWSCHWDRDHRRYFYVNWQSGESQWEFPDGEEEEEES [E25W] | -0.648 ± 0.095
EINATPKGWSCHWDRDHRRYFYVNEASGESQWEFPDGEEEEEES [Q26A] | 0.017 ± 0.071
EINATPKGWSCHWDRDHRRYFYVNECSGESQWEFPDGEEEEEES [Q26C] | 0.133 ± 0.25
EINATPKGWSCHWDRDHRRYFYVNEFSGESQWEFPDGEEEEEES [Q26F] | -0.015 ± 0.29
EINATPKGWSCHWDRDHRRYFYVNEGSGESQWEFPDGEEEEEES [Q26G] | -0.199 ± 0.063
EINATPKGWSCHWDRDHRRYFYVNEHSGESQWEFPDGEEEEEES [Q26H] | -0.266 ± 0.2
EINATPKGWSCHWDRDHRRYFYVNEKSGESQWEFPDGEEEEEES [Q26K] | 0.18 ± 0.11
EINATPKGWSCHWDRDHRRYFYVNELSGESQWEFPDGEEEEEES [Q26L] | -0.137 ± 0.083
EINATPKGWSCHWDRDHRRYFYVNEMSGESQWEFPDGEEEEEES [Q26M] | -0.242 ± 0.18
EINATPKGWSCHWDRDHRRYFYVNEPSGESQWEFPDGEEEEEES [Q26P] | -1.06 ± 0.24
EINATPKGWSCHWDRDHRRYFYVNERSGESQWEFPDGEEEEEES [Q26R] | -0.085 ± 0.067
EINATPKGWSCHWDRDHRRYFYVNESSGESQWEFPDGEEEEEES [Q26S] | -0.071 ± 0.081
EINATPKGWSCHWDRDHRRYFYVNETSGESQWEFPDGEEEEEES [Q26T] | -0.104 ± 0.12
EINATPKGWSCHWDRDHRRYFYVNEVSGESQWEFPDGEEEEEES [Q26V] | -0.19 ± 0.099
EINATPKGWSCHWDRDHRRYFYVNEQAGESQWEFPDGEEEEEES [S27A] | -0.611 ± 0.08
EINATPKGWSCHWDRDHRRYFYVNEQCGESQWEFPDGEEEEEES [S27C] | -0.681 ± 0.28
EINATPKGWSCHWDRDHRRYFYVNEQDGESQWEFPDGEEEEEES [S27D] | -0.551 ± 0.14
EINATPKGWSCHWDRDHRRYFYVNEQEGESQWEFPDGEEEEEES [S27E] | -0.427 ± 0.091
EINATPKGWSCHWDRDHRRYFYVNEQFGESQWEFPDGEEEEEES [S27F] | -0.988 ± 0.17

Variant | abundance fitness
EINATPKGWSCHWDRDHRRYFYVNEQGGESQWEFPDGEEEEEES [S27G] | -0.458 ± 0.11
EINATPKGWSCHWDRDHRRYFYVNEQKGESQWEFPDGEEEEEES [S27K] | -0.485 ± 0.18
EINATPKGWSCHWDRDHRRYFYVNEQMGESQWEFPDGEEEEEES [S27M] | -0.641 ± 0.12
EINATPKGWSCHWDRDHRRYFYVNEQNGESQWEFPDGEEEEEES [S27N] | -0.453 ± 0.47
EINATPKGWSCHWDRDHRRYFYVNEQPGESQWEFPDGEEEEEES [S27P] | -1.02 ± 0.19
EINATPKGWSCHWDRDHRRYFYVNEQQGESQWEFPDGEEEEEES [S27Q] | -0.613 ± 0.12
EINATPKGWSCHWDRDHRRYFYVNEQRGESQWEFPDGEEEEEES [S27R] | -0.422 ± 0.09
EINATPKGWSCHWDRDHRRYFYVNEQTGESQWEFPDGEEEEEES [S27T] | 0.022 ± 0.072
EINATPKGWSCHWDRDHRRYFYVNEQWGESQWEFPDGEEEEEES [S27W] | -1.52 ± 0.45
EINATPKGWSCHWDRDHRRYFYVNEQSAESQWEFPDGEEEEEES [G28A] | -0.567 ± 0.076
EINATPKGWSCHWDRDHRRYFYVNEQSCESQWEFPDGEEEEEES [G28C] | -0.61 ± 0.12
EINATPKGWSCHWDRDHRRYFYVNEQSDESQWEFPDGEEEEEES [G28D] | -0.682 ± 0.11
EINATPKGWSCHWDRDHRRYFYVNEQSEESQWEFPDGEEEEEES [G28E] | -0.702 ± 0.1
EINATPKGWSCHWDRDHRRYFYVNEQSFESQWEFPDGEEEEEES [G28F] | -1.22 ± 0.23
EINATPKGWSCHWDRDHRRYFYVNEQSKESQWEFPDGEEEEEES [G28K] | -0.199 ± 0.2
EINATPKGWSCHWDRDHRRYFYVNEQSLESQWEFPDGEEEEEES [G28L] | -0.363 ± 0.071
EINATPKGWSCHWDRDHRRYFYVNEQSMESQWEFPDGEEEEEES [G28M] | -0.611 ± 0.13
EINATPKGWSCHWDRDHRRYFYVNEQSQESQWEFPDGEEEEEES [G28Q] | -0.337 ± 0.11
